T1: PUF4 RNA-binding domain (Saccharomyces cerevisiae, UniProt P25339 537-888)
T1 sequence: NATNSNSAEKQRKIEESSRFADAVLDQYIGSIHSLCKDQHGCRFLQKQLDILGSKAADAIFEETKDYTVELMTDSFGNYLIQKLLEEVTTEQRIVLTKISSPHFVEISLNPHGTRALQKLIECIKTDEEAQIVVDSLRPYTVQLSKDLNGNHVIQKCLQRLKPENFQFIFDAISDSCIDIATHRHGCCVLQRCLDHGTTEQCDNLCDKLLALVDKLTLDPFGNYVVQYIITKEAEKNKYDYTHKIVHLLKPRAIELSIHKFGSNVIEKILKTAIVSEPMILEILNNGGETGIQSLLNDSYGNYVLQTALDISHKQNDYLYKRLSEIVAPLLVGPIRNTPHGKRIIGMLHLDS


Target: T1, PUF4 RNA-binding domain
Assay: Mg; RNA-MaP; 20 mM Na-HEPES pH 7.4, 30 mM KOAc, 0.75 mM MgCl2, 0.1% Tween-20, 5% glycerol, 0.1 mg/mL BSA, 2 mM DTT; 25 C; 0.0125-409.6 nM protein
Conditions: tags: N-His6-TEV cleaved; C-SNAP kept, Cy3B-labelled; label: tethered on chip by stalled RNA polymerase

Row | Binder | Kd [nM]
1 | Ia_S4_P4E.1_K4.1_C4.1_H4.1_[T3C]_A4.1_F4.1_T4.1 (ssRNA) RNA: UUUGACAACUGAUCGUUCUUUCUUGCAUAUUAUUCUUUCUCGAUCAGUUGUCUUU | 21
2 | Ia_S4_P4E.1_K4.1_C4.1_H4.1_A4.1_[A6C]_F4.1_T4.1 (ssRNA) RNA: UUUGACAACUGAUCGUUCUUUCUUGUAUCUUAUUCUUUCUCGAUCAGUUGUCUUU | 2.17
3 | Ic_S4_P4E.1_K4.1_C4.1_H4.1_A4.1_[T5A]_F4.1_T4.1 (ssRNA) RNA: UUUGACAACUGAUCGUUCUUUCUUGUAAAUUAUUCUUUCUCGAUCAGUUGUCUUU | 1.69
4 | Ia_S4_P4E.1_K4.1_C4.1_H4.1_[A4G]_A4.1_F4.1_T4.1 (ssRNA) RNA: UUUGACAACUGAUCGUUCUUUCUUGUGUAUUAUUCUUUCUCGAUCAGUUGUCUUU | 1.25
5 | Ia_S4_P4E.1_K4.1_C4.1_H4.1_A4.1_[T5C]_F4.1_T4.1 (ssRNA) RNA: UUUGACAACUGAUCGUUCUUUCUUGUACAUUAUUCUUUCUCGAUCAGUUGUCUUU | 0.303
6 | Ib_S4_P5E.1_K5.1_C5.1_H5.1_[A4C]_A5.1_F5.1_[T9A]_T5.1 (ssRNA) RNA: UUUGACAACUGAUCGUUCUUUCUUGUCUUAUAAUUCUUUCUCGAUCAGUUGUCUUU | 57.1
7 | Ic_S4_P5E.1_K5.1_C5.1_H5.1_A5.1_[T6C]_F5.1_[T9A]_T5.1 (ssRNA) RNA: UUUGACAACUGAUCGUUCUUUCUUGUAUCAUAAUUCUUUCUCGAUCAGUUGUCUUU | 1.47
8 | Ib_S4_P5E.1_K5.1_C5.1_H5.1_A5.1_[A7T]_F5.1_[T9C]_T5.1 (ssRNA) RNA: UUUGACAACUGAUCGUUCUUUCUUGUAUUUUCAUUCUUUCUCGAUCAGUUGUCUUU | 69.4
9 | Ib_S4_P5E.1_K5.1_C5.1_H5.1_A5.1_[A7T]_F5.1_[A10G]_T5.1 (ssRNA) RNA: UUUGACAACUGAUCGUUCUUUCUUGUAUUUUUGUUCUUUCUCGAUCAGUUGUCUUU | 9.13
10 | Ib_S4_P5E.1_K5.1_C5.1_H5.1_A5.1_[T5G]_F5.1_[A10G]_T5.1 (ssRNA) RNA: UUUGACAACUGAUCGUUCUUUCUUGUAGUAUUGUUCUUUCUCGAUCAGUUGUCUUU | 109
11 | Ib_S4_P5E.1_K5.1_C5.1_H5.1_A5.1_[A7T]_F5.1_[T8C]_T5.1 (ssRNA) RNA: UUUGACAACUGAUCGUUCUUUCUUGUAUUUCUAUUCUUUCUCGAUCAGUUGUCUUU | 3.12
12 | Ib_S4_P5E.1_K5.1_C5.1_H5.1_A5.1_[T5C]_F5.1_[A10T]_T5.1 (ssRNA) RNA: UUUGACAACUGAUCGUUCUUUCUUGUACUAUUUUUCUUUCUCGAUCAGUUGUCUUU | 4.98
13 | Ib_S4_P5E.1_K5.1_C5.1_H5.1_A5.1_[T6A]_F5.1_[T8C]_T5.1 (ssRNA) RNA: UUUGACAACUGAUCGUUCUUUCUUGUAUAACUAUUCUUUCUCGAUCAGUUGUCUUU | 5.07
14 | Ib_S4_P5E.1_K5.1_C5.1_H5.1_[G2T]_[A4G]_A5.1_F5.1_T5.1 (ssRNA) RNA: UUUGACAACUGAUCGUUCUUUCUUUUGUUAUUAUUCUUUCUCGAUCAGUUGUCUUU | 492
15 | Ib_S4_P5E.1_K5.1_C5.1_H5.1_[T1C]_[G2A]_A5.1_F5.1_T5.1 (ssRNA) RNA: UUUGACAACUGAUCGUUCUUUCUCAUAUUAUUAUUCUUUCUCGAUCAGUUGUCUUU | 1660
16 | Ib_S4_P5E.1_K5.1_C5.1_H5.1_[G2A]_[T3A]_A5.1_F5.1_T5.1 (ssRNA) RNA: UUUGACAACUGAUCGUUCUUUCUUAAAUUAUUAUUCUUUCUCGAUCAGUUGUCUUU | 2140
17 | Ic_S4_P5E.1_K5.1_C5.1_H5.1_A5.1_[T5C]_F5.1_[T8C]_T5.1 (ssRNA) RNA: UUUGACAACUGAUCGUUCUUUCUUGUACUACUAUUCUUUCUCGAUCAGUUGUCUUU | 3.13
18 | Ib_S4_P5E.1_K5.1_C5.1_H5.1_A5.1_[A7T]_F5.1_[T8G]_T5.1 (ssRNA) RNA: UUUGACAACUGAUCGUUCUUUCUUGUAUUUGUAUUCUUUCUCGAUCAGUUGUCUUU | 3.74
19 | Ib_S4_P5E.1_K5.1_C5.1_H5.1_[A4G]_A5.1_F5.1_[A10C]_T5.1 (ssRNA) RNA: UUUGACAACUGAUCGUUCUUUCUUGUGUUAUUCUUCUUUCUCGAUCAGUUGUCUUU | 105
20 | Ib_S4_P5E.1_K5.1_C5.1_H5.1_[G2A]_A5.1_F5.1_[A10T]_T5.1 (ssRNA) RNA: UUUGACAACUGAUCGUUCUUUCUUAUAUUAUUUUUCUUUCUCGAUCAGUUGUCUUU | 259
21 | Ib_S4_P5E.1_K5.1_C5.1_H5.1_[T1C]_[A4T]_A5.1_F5.1_T5.1 (ssRNA) RNA: UUUGACAACUGAUCGUUCUUUCUCGUUUUAUUAUUCUUUCUCGAUCAGUUGUCUUU | 1050
22 | Ib_S4_P5E.1_K5.1_C5.1_H5.1_[G2C]_[A4T]_A5.1_F5.1_T5.1 (ssRNA) RNA: UUUGACAACUGAUCGUUCUUUCUUCUUUUAUUAUUCUUUCUCGAUCAGUUGUCUUU | > 2300
23 | Ib_S4_P5E.1_K5.1_C5.1_H5.1_[A4C]_A5.1_F5.1_[A10T]_T5.1 (ssRNA) RNA: UUUGACAACUGAUCGUUCUUUCUUGUCUUAUUUUUCUUUCUCGAUCAGUUGUCUUU | 201
24 | Ib_S4_P5E.1_K5.1_C5.1_H5.1_[T1A]_[A4G]_A5.1_F5.1_T5.1 (ssRNA) RNA: UUUGACAACUGAUCGUUCUUUCUAGUGUUAUUAUUCUUUCUCGAUCAGUUGUCUUU | 1260

Row | Binder | Kd [nM]
25 | Ib_S4_P5E.1_K5.1_C5.1_H5.1_[T1C]_[T3C]_A5.1_F5.1_T5.1 (ssRNA) RNA: UUUGACAACUGAUCGUUCUUUCUCGCAUUAUUAUUCUUUCUCGAUCAGUUGUCUUU | > 2300
26 | Ib_S4_P5E.1_K5.1_C5.1_H5.1_A5.1_[T5C]_F5.1_[T9C]_T5.1 (ssRNA) RNA: UUUGACAACUGAUCGUUCUUUCUUGUACUAUCAUUCUUUCUCGAUCAGUUGUCUUU | 27.6
27 | Ib_S4_P5E.1_K5.1_C5.1_H5.1_[A4T]_A5.1_F5.1_[T9A]_T5.1 (ssRNA) RNA: UUUGACAACUGAUCGUUCUUUCUUGUUUUAUAAUUCUUUCUCGAUCAGUUGUCUUU | 33.2
28 | Ib_S4_P5E.1_K5.1_C5.1_H5.1_[T3C]_A5.1_F5.1_[A10C]_T5.1 (ssRNA) RNA: UUUGACAACUGAUCGUUCUUUCUUGCAUUAUUCUUCUUUCUCGAUCAGUUGUCUUU | 1790
29 | Ib_S4_P5E.1_K5.1_C5.1_H5.1_A5.1_[A7G]_F5.1_[A10G]_T5.1 (ssRNA) RNA: UUUGACAACUGAUCGUUCUUUCUUGUAUUGUUGUUCUUUCUCGAUCAGUUGUCUUU | 52.3
30 | Ib_S4_P5E.1_K5.1_C5.1_H5.1_[T1G]_[A4C]_A5.1_F5.1_T5.1 (ssRNA) RNA: UUUGACAACUGAUCGUUCUUUCUGGUCUUAUUAUUCUUUCUCGAUCAGUUGUCUUU | > 2300
31 | Ib_S4_P5E.1_K5.1_C5.1_H5.1_[T1C]_[G2T]_A5.1_F5.1_T5.1 (ssRNA) RNA: UUUGACAACUGAUCGUUCUUUCUCUUAUUAUUAUUCUUUCUCGAUCAGUUGUCUUU | > 2300
32 | Ib_S4_P5E.1_K5.1_C5.1_H5.1_A5.1_[A7C]_F5.1_[T9C]_T5.1 (ssRNA) RNA: UUUGACAACUGAUCGUUCUUUCUUGUAUUCUCAUUCUUUCUCGAUCAGUUGUCUUU | 56
33 | Ib_S4_P5E.1_K5.1_C5.1_H5.1_[A4C]_A5.1_F5.1_[A10C]_T5.1 (ssRNA) RNA: UUUGACAACUGAUCGUUCUUUCUUGUCUUAUUCUUCUUUCUCGAUCAGUUGUCUUU | 493
34 | Ic_S4_P5E.1_K5.1_C5.1_H5.1_A5.1_[A7C]_F5.1_[A10T]_T5.1 (ssRNA) RNA: UUUGACAACUGAUCGUUCUUUCUUGUAUUCUUUUUCUUUCUCGAUCAGUUGUCUUU | 13.8
35 | Ib_S4_P5E.1_K5.1_C5.1_H5.1_A5.1_[T6A]_F5.1_[T8A]_T5.1 (ssRNA) RNA: UUUGACAACUGAUCGUUCUUUCUUGUAUAAAUAUUCUUUCUCGAUCAGUUGUCUUU | 9.5
36 | Ib_S4_P5E.1_K5.1_C5.1_H5.1_A5.1_[T5A]_F5.1_[T8A]_T5.1 (ssRNA) RNA: UUUGACAACUGAUCGUUCUUUCUUGUAAUAAUAUUCUUUCUCGAUCAGUUGUCUUU | 13.8
37 | Ib_S4_P5E.1_K5.1_C5.1_H5.1_A5.1_[A7G]_F5.1_[T9C]_T5.1 (ssRNA) RNA: UUUGACAACUGAUCGUUCUUUCUUGUAUUGUCAUUCUUUCUCGAUCAGUUGUCUUU | 393
38 | Ib_S4_P5E.1_K5.1_C5.1_H5.1_[T1A]_[T3C]_A5.1_F5.1_T5.1 (ssRNA) RNA: UUUGACAACUGAUCGUUCUUUCUAGCAUUAUUAUUCUUUCUCGAUCAGUUGUCUUU | > 2300
39 | Ib_S4_P5E.1_K5.1_C5.1_H5.1_A5.1_[A7G]_F5.1_[T8C]_T5.1 (ssRNA) RNA: UUUGACAACUGAUCGUUCUUUCUUGUAUUGCUAUUCUUUCUCGAUCAGUUGUCUUU | 14.9
40 | Ib_S4_P5E.1_K5.1_C5.1_H5.1_A5.1_[T5G]_F5.1_[T9A]_T5.1 (ssRNA) RNA: UUUGACAACUGAUCGUUCUUUCUUGUAGUAUAAUUCUUUCUCGAUCAGUUGUCUUU | 7.64
41 | Ib_S4_P5E.1_K5.1_C5.1_H5.1_A5.1_[A7C]_F5.1_[T8G]_T5.1 (ssRNA) RNA: UUUGACAACUGAUCGUUCUUUCUUGUAUUCGUAUUCUUUCUCGAUCAGUUGUCUUU | 10.4
42 | Ib_S4_P5E.1_K5.1_C5.1_H5.1_A5.1_[A7T]_F5.1_[A10T]_T5.1 (ssRNA) RNA: UUUGACAACUGAUCGUUCUUUCUUGUAUUUUUUUUCUUUCUCGAUCAGUUGUCUUU | 10.7
43 | Ib_S4_P5E.1_K5.1_C5.1_H5.1_A5.1_[T6C]_F5.1_[A10T]_T5.1 (ssRNA) RNA: UUUGACAACUGAUCGUUCUUUCUUGUAUCAUUUUUCUUUCUCGAUCAGUUGUCUUU | 7.7
44 | Ib_S4_P5E.1_K5.1_C5.1_H5.1_[A4T]_A5.1_F5.1_[A10T]_T5.1 (ssRNA) RNA: UUUGACAACUGAUCGUUCUUUCUUGUUUUAUUUUUCUUUCUCGAUCAGUUGUCUUU | 119
45 | Ib_S4_P5E.1_K5.1_C5.1_H5.1_A5.1_[T5A]_F5.1_[A10C]_T5.1 (ssRNA) RNA: UUUGACAACUGAUCGUUCUUUCUUGUAAUAUUCUUCUUUCUCGAUCAGUUGUCUUU | 29.4
46 | Ib_S4_P5E.1_K5.1_C5.1_H5.1_A5.1_[T5G]_F5.1_[T8C]_T5.1 (ssRNA) RNA: UUUGACAACUGAUCGUUCUUUCUUGUAGUACUAUUCUUUCUCGAUCAGUUGUCUUU | 13.1
47 | Ib_S4_P5E.1_K5.1_C5.1_H5.1_[G2C]_[A4G]_A5.1_F5.1_T5.1 (ssRNA) RNA: UUUGACAACUGAUCGUUCUUUCUUCUGUUAUUAUUCUUUCUCGAUCAGUUGUCUUU | 455
48 | Ib_S4_P5E.1_K5.1_C5.1_H5.1_[T1C]_A5.1_F5.1_[A10C]_T5.1 (ssRNA) RNA: UUUGACAACUGAUCGUUCUUUCUCGUAUUAUUCUUCUUUCUCGAUCAGUUGUCUUU | > 2300
